This note sets out measurements from patent US20120087931A1.

Assay [1] has as its target membrane Hsp70 on mouse tumor cells (mouse) (UniProt Q61696). The assay is described as follows: cell-based or functional assay.
For assay [2] the target is unchanged. In words: flow cytometry, CT26 cells used as ADCC targets (FIG. 8). For orientation: In flow cytometry, cells or beads pass a laser one at a time.
The target is the same in assay [3]. In words: flow cytometry, CT26 cells used as ADCC targets (FIG. 9A).
Assay [4] has the same target. The assay is described as follows: flow cytometry, CT26 cells used as ADCC targets (FIG. 9B).
Assay [5] has the same target. In words: flow cytometry at 4 C, viable ADJ (BALB/c) plasmocytoma cells.
Assay [6] shares this target. The assay is described as follows: flow cytometry at 4 C, viable MOS162 (C3H) osteosarcoma cells.
The target is the same in assay [7]. In words: flow cytometry at 4 C, viable B16/F10 (C57/Bl6) melanoma cells.
Assay [8] has the same target. In words: flow cytometry at 4 C, viable CT26 (BALB/c) colon carcinoma cells.
Assay [9] has as its target purified human Hsp70 protein (human) (UniProt P0DMV8). The assay is described as follows: SPR, Biacore X, 25 C, Hsp70 0.78-50 nM, global fit to a 1:1 model. (SPR reads the build-up and loss of mass on a sensor chip optically.)
UniProt P0DMV8, sequence (P0DMV8 whole entry): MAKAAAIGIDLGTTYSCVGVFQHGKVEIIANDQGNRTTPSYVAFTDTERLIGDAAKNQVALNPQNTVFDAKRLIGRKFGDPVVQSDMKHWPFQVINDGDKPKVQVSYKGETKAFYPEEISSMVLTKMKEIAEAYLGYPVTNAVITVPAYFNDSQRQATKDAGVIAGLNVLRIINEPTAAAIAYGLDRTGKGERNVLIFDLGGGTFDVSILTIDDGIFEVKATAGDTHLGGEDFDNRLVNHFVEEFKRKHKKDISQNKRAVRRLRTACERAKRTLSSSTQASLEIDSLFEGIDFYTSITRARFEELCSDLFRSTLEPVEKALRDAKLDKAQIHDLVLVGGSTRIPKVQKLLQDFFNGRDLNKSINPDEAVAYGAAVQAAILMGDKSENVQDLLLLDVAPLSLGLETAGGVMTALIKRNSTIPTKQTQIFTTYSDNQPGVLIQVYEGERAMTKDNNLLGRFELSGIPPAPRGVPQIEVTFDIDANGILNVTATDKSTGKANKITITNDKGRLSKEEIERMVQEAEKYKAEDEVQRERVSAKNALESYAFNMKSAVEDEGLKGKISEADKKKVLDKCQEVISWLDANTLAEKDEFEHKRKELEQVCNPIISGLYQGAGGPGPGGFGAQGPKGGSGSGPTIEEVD
In assay [10] the target is membrane Hsp70 on mouse tumor cells (mouse) (UniProt Q61696). The assay is described as follows: flow cytometry, cultured CT26 cells; antibody not named.
For assay [11] the target is unchanged. In words: flow cytometry at 4 C, CT26 cells, cmHsp70.1-FITC 5 µg/mL without peptide.
For assay [12] the target is unchanged. The assay is described as follows: flow cytometry, CT26 cells from tissue culture; antibody not named.
The target is the same in assay [13]. The assay is described as follows: flow cytometry, single cell suspensions of CT26 tumors from mice on day 14; antibody not named.
Assay [14] has the same target. The assay is described as follows: flow cytometry, single-cell suspensions of CT26 tumors from mice on day 14; antibody not named.
Assay [15] has the same target. In words: flow cytometry at 4 C, viable A20 (BALB/c) B cell lymphoma cells (counted as membrane Hsp70 negative, limit 15%).
Assay [16] has the same target. In words: flow cytometry at 4 C, viable 1048 (BALB/c) pancreatic carcinoma cells (counted as membrane Hsp70 negative, limit 15%).
The target is the same in assay [17]. In words: flow cytometry, cmHsp70.1-FITC on viable CT26 mouse colon carcinoma cells; IgG1 isotype control as white histogram.
In assay [18] the target is monoclonal antibody cmHsp70.1 as produced by hybridoma cmHsp70.1 (DSM ACC2629). The assay is described as follows: flow cytometry at 4 C, CT26 cells, cmHsp70.1-FITC 5 µg/mL plus TKD 25 µg/mL.
The target is the same in assay [19]. In words: flow cytometry at 4 C, CT26 cells, cmHsp70.1-FITC 5 µg/mL plus TKD 12.5 µg/mL.
The target in assay [20] is theta antigen on BW mouse tumor cells. In words: staining of BW mouse cells transfected with theta (method not given).

Values joined by “and” are separate entries in the source; they are usually repeats but may differ in a detail not shown here. Identical values can stand only once.

UniProt Q61696, sequence (Q61696 2-641): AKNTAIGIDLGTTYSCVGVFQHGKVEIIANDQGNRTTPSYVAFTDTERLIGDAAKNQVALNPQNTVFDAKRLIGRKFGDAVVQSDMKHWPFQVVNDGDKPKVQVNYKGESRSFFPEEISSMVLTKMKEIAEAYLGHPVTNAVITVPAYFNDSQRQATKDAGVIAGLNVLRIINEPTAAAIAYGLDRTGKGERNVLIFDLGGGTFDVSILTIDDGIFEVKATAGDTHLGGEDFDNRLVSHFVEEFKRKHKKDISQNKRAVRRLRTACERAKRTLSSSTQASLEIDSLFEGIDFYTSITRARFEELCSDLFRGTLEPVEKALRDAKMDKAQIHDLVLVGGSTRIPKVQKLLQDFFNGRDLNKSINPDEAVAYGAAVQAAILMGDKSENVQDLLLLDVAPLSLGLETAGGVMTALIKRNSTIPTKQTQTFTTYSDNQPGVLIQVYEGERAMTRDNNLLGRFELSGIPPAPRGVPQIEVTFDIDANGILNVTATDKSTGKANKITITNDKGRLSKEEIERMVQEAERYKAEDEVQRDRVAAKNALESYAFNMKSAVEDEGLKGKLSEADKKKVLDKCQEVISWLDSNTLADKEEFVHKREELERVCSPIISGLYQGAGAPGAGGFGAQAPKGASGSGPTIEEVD

A word on the Kd: it is the free concentration of one partner at which half of the binding sites on the other are occupied at equilibrium, for simple one-to-one binding. Low values mean higher affinity, high ones lower affinity. In general, koff refers to a measure of how fast the partners let go of each other. Higher therefore signals a short-lived complex. In general, kon refers to a measure of how fast the partners come together. On to “monoclonal antibody cmHsp70.1 as produced by hybridoma cmHsp70.1 (DSM ACC2629)”, for which the ADCC against CT26 tumor cells (4 h 51Cr release, unstimulated mouse spleen cells) in [1] worked out at 1.4 µg/mL. For the same substance, the Hsp70 membrane-positive cells (%) in assay [2] was found to be 55%; in assay [5] it was 45%; in assay [6], 70%; in assay [7] it was 97%; in assay [8], 44%; in assay [15], 5%. For the same substance, the Hsp70 membrane-positive cells (%) in [16] is 12%. Moreover, the membrane Hsp70+ cells (%) in assay [3] is 60%; in assay [10], 46.2%; in [11] it was 59% and 60%; in assay [14] it was 69.8%. In [4], this substance showed a cmHsp70.1+ cells (%) of 61%. This substance gave a Kd in [9] of 5.4 nM. This substance also gave a koff in [9] of 0.000379 s⁻¹. This substance registered an on-rate constant (kon) in assay [9] of 69900 M⁻¹ s⁻¹. In addition, the Hsp70 membrane positive cells (%) in [12] came to 56.2%; in assay [13] it was 79.8%. The positive cells in the marker gate in assay [17] amounted to 59%.
As for 14-mer Hsp70 peptide TKD (…), the membrane Hsp70+ cells (%) left in the presence of the peptide in assay [18] was < 15%; in assay [19], 44%.
The substance IgG1 O×7.11 mAb (antibody) yielded a positive cells (%) in assay [20] of 56%.
